Here are results for one molecule from patent US6849598B1, “Therapeutic compositions comprising bactericidal/permeability-increasing (BPI) protein products” (XOMA, priority 1995, dated 2005).

What all share (test): Bactericidal activity in water or broth, CFU after 30 minutes and 3 hours (Example 3)
What all share (format): cell-based

The test system of test [1] is A. baumannii (formerly A. anitratus). As for the experimental part: (§1) The bactericidal activity of therapeutic compositions comprising BPI protein product and heat-treated PLURONIC P103 or heat-treated PLURONIC P104, was evaluated against the S. aureus and A. baumannii clinical isolates of Example 1 and the additional organisms S. pneunoniae (Microscan® ID no. 145) and E. faecium (Microscan® ID no. 15773). Therapeutic compositions comprising 500 μg/mL rBPI21 in a 0.075% (w/v) concentration of either heat-treated PLURONIC P103 or heat-treated PLURONIC P104 were formulated by diluting a 2 mg/mL solution of “non-formulated” rBPI21 or “formulated” rBPI21, with the appropriate amounts of 0.1% heat-treated PLURONIC P103 or heat-treated PLURONIC P104 solutions. Compositions comprising 500 μg/mL non-formulated rBPI21 in water alone (without any poloxamers) and poloxamer control solutions containing only 0.1% heat-treated P103 or heat-treated P104 (and no rBPI21) were also prepared A “formulated” rBPI23 therapeutic composition containing 1 mg/mL rBPI23, 0.1% PLURONIC F68 and 0.002% TWEEN 80 was also tested for comparison.
(§2) Sterile stock solutions of heat-treated PLURONIC P103 or heat-treated PLURONIC P104 were prepared using the following procedure: (1) making a 0.1% (w/v) solution of the poloxamer in deionized water, (2) heating the solution to a boil, (3) allowing it to cool to room temperature, (4) stirring until the PLURONIC P103 was completely solubilized, and (5) filtering the solution through a 0.22 μm Nalgene filter for sterilization.
(§3) The S. aureus, E. faecium and A. baumannii bacteria were grown on TSA plates (Remel, Catalog #01-920, Lenexa, Kans.), and the S. pneumoniae were grown on 5% sheep blood agar plates (Remel, Catalog# 01-200, Lenexa, Kans.) for 24 hours. A bacterial stock emulsion was prepared by emulsifying bacterial colonies in sterile deionized water to approximately 2.2 to 3.8×10^8 CFU/mL as measured by a Microscan® Turbidity Meter, and diluting further by 1:10 in water. Assays for rBPI21 therapeutic compositions were conducted in 96-well flat-bottom microtiter plates (Corning, catalog# 25860-96) by adding to each well: 185 μL of TSB (Remel, catalog #08-942, Lenexa, Kans.) or sterile water for injection (Kendall McGaw); 8 μL of the bacterial emulsion; 6.3 μL of the indicated 500 μg/mL rBPI21/poloxamer therapeutic composition (or poloxamer control solution or water alone). The final concentrations of bacteria in each well were about 4 to 7×10^5 CFU/mL. Assays for the rBPI23 therapeutic composition were conducted in the same way, except 178 μL of broth or water and 13 μL of the […] rBPI23 composition were added. The well contents were mixed and the plates were incubated at 37° C. The CFUs in each well were counted at 10^−2 and 10^−4 dilutions after 30 minutes and 3 hours of incubation. Results at 30 minutes and 3 hours, respectively, are shown below in Tables 8 and 9.

In test [2] the test system is E. faecium (Microscan® ID no. 15773). As for the experimental part: as §1, §2, §3
Another test has as its system S. aureus. The procedure:
as §1, §2, §3

In test [3] the test system is S. pneumoniae (Microscan® ID no. 145). As for the experimental part:
as §1, §2, §3

Where [4] appears, read: broth, Incubation for 3 hours, Control TNTC.
[5] abbreviates: water, Incubation for 3 hours, Control TNTC.
The mark [6] stands for this setting: broth, Incubation for 30 minutes, Control TNTC / TNTC.
Setting [7] is: water, Incubation for 30 minutes, Control TNTC / TNTC.

B1: rBPI21: expression product of DNA encoding amino acid 1 to approximately 193 or 199 of BPI holoprotein, cysteine 132 substituted with alanine (protein, UniProt P17213 32-224, looked up, variant C132A)
chain: VNPGVVVRISQKGLDYASQQGTAALQKELKRIKIPDYSDSFKIKHLGKGHYSFYSMDIREFQLPSSQISMVPNVGLKFSISNANIKISGKWKAQKRFLKMSGNFDLSIEGMSISADLKLGSNPTSGKPTITASSCSSHINSVHVHISKSKVGWLIQLFHKKIESALRNKMNSQVCEKVTNSVSSELQPYFQTL
Consider B1, for which the CFUs was 24 10000 CFUs in test [1] (A. anitratus, broth, Incubation for 30 minutes, Control 44 / 41); “TNTC” in test [1] (A. anitratus, broth, Incubation for 30 minutes, Control TNTC / TNTC); 0 10000 CFUs in test [1] (A. anitratus, water, Incubation for 30 minutes, Control 16 / 17); 73 100 CFUs in test [1] (A. anitratus, water, Incubation for 30 minutes, Control TNTC / TNTC); 58 100 CFUs in test [1] (setting [4]); 0 100 CFUs in test [1] (setting [5]). Besides, the CFUs in test [2] (broth, Incubation for 30 minutes, Control 68 / 38) is given as 89 10000 CFUs; in test [2] (setting [6]), “TNTC”; in test [2] (setting [4]), “TNTC”; in test [2] (water, Incubation for 30 minutes, Control 37 / 35) it was 1 10000 CFUs; in test [2] (setting [7]), 50 100 CFUs; in test [2] (setting [5]), 1 100 CFUs. Also, the CFUs with S. aureus (broth, Incubation for 30 minutes, Control 65 / 59) is 57 10000 CFUs; in the test with S. aureus (setting [6]) it was “TNTC”; in the test with S. aureus (setting [4]), “TNTC”; with S. aureus (water, Incubation for 30 minutes, Control 54 / 63) it was 2 10000 CFUs; in the test on S. aureus (setting [7]) it was 315 100 CFUs; in the test with S. aureus (setting [5]) it was 12 100 CFUs. Also, the CFUs in test [3] (broth, Incubation for 30 minutes, Control 4 / 1) is given as 4 10000 CFUs; in test [3] (broth, Incubation for 30 minutes, Control 389 / 350), 290 100 CFUs; in test [3] (broth, Incubation for 3 hours, Control 337), 447 100 CFUs; in test [3] (water, Incubation for 30 minutes, Control 1 / 0), 0 10000 CFUs; in test [3] (water, Incubation for 30 minutes, Control 75 / 47), 61 100 CFUs; in test [3] (water, Incubation for 3 hours, Control 0) it was 0 100 CFUs.
